In experiment [1] the target is T1, HMGB1 (from mouse thymus) (mouse, UniProt P63158 1-215).
T1 sequence (looked up): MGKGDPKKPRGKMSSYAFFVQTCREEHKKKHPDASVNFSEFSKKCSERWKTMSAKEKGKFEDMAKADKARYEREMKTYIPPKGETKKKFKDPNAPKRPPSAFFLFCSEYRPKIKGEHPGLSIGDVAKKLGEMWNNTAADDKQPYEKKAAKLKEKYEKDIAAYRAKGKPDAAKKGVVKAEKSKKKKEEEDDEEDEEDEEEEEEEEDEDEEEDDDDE
Briefly: cross-linking.

In experiment [2] the target is T2, NSBP1 (HMGN5), wild type, recombinant (mouse, UniProt Q9JL35 1-406).
T2 sequence (looked up): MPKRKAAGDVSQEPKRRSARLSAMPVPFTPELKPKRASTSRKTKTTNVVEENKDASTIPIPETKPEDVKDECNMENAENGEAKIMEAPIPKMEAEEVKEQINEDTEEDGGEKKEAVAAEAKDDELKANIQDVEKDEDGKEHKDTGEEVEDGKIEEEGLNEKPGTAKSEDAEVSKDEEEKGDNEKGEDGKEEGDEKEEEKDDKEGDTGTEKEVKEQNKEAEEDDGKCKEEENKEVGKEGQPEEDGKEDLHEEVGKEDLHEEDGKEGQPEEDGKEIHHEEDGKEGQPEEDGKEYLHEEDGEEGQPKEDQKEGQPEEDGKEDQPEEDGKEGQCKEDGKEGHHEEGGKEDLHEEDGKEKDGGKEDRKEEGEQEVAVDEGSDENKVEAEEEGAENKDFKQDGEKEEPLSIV
In words: cross-linking.

B1: linker histone H5 (native, from chicken erythrocytes) (natural protein, UniProt P02259 1-190, looked up)
chain: MTESLVLSPAPAKPKRVKASRRSASHPTYSEMIAAAIRAEKSRGGSSRQSIQKYIKSHYKVGHNADLQIKLSIRRLLAAGVLKQTKGVGASGSFRLAKSDKAKRSPGKKKKAVRRSTSPKKAARPRKARSPAKKPKATARKARKKSRASPKKAKKPKTVKAKSRKASKAKKVKRSKPRAKSGARKSPKKK
B1: the binding result in experiment [1] and in experiment [2] was “binds” throughout.

(Values after paper PMC2757144 (Molecular cell, 2009).)
